In assay [1] the target is NC41 Fab. The assay can be described thus: gel filtration FPLC on Superose 12. For orientation: SEC sorts molecules by how far they enter the pores of the column.
For assay [2], the target named is NC41 Fab. The experiment in a line: sedimentation equilibrium of the isolated complex.
In assay [3] the target is NC41 Fab. The experiment in a line: BIAcore SPR; NC41 Fab immobilised, scFv as analyte (apparent, multivalent). On the technique in general: In SPR one partner is held on a chip, and binding of the other changes the refractive index at the surface.
Assay [4] deals with NC41 Fab. The assay can be described thus: BIAcore SPR; NC41 Fab immobilised, scFv as analyte.
Assay [5] deals with NC10 scFv-5 dimer. The assay can be described thus: BIAcore SPR; scFv-5 dimer immobilised (200 RU), Fab′ as analyte.
Assay [6] has as its target NC10 scFv-0 trimer (VH-VL). The experiment in a line: BIAcore SPR; scFv-0 trimer immobilised (450 RU), Fab′ as analyte.
Assay [7] addresses NC10 scFv-10 dimer. The assay can be described thus: BIAcore SPR; scFv-10 dimer immobilised (200 RU), Fab′ as analyte.
Assay [8] addresses NC10 scFv-15 monomer. The assay can be described thus: BIAcore SPR; scFv-15 monomer immobilised (2000 RU), Fab′ as analyte.
Assay [9] deals with NC10 scFv-15 monomer. The experiment in a line: BIAcore SPR; scFv-15 monomer immobilised (~2000 RU), from the RU increase.
Assay [10] concerns the target Anti-idiotype 3-2G12 Fab′. The experiment in a line: sedimentation equilibrium of the isolated complex, fitted as a single species.
The target in assay [11] is Anti-idiotype 3-2G12 Fab′. The experiment in a line: sedimentation equilibrium of the isolated complex.
Assay [12] has as its target Anti-idiotype 3-2G12 Fab′. The assay can be described thus: BIAcore SPR; 3-2G12 Fab′ immobilised (1000 RU), scFv as analyte.

Take 11-1G10 scFv-0 trimer: the apparent molecular mass of complex in [1] worked out at 245 kDa. The same substance yielded a molecular mass of complex (experimental) in assay [2] of 262000 Da. Also, in assay [3], the off-rate constant (koff) (commonly the rate constant with which the complex falls apart) was found to be 8.2e-05 s⁻¹.
As for 11-1G10 scFv-15 monomer, the apparent molecular mass of complex in [1] was found to be 79 kDa. In assay [2], this substance returned a molecular mass of complex (experimental) of 78600 Da. For the same substance, the koff in assay [4] turned out to be 0.00032 s⁻¹.
As to Anti-idiotype 3-2G12 Fab′, the Ka in assay [5] was 1.06e+08 M⁻¹; in [6], 1.13e+08 M⁻¹; in [7] it was 1.3e+08 M⁻¹; in assay [8], 2.5e+08 M⁻¹. Moreover, the koff came to 0.0033 s⁻¹ in assay [5], 0.0023 s⁻¹ in [6], 0.0029 s⁻¹ in [7] and 0.0021 s⁻¹ in assay [8]. In addition, the kon (as a rule, a measure of how fast the partners come together) was found to be 350000 M⁻¹ s⁻¹ in assay [5], 260000 M⁻¹ s⁻¹ in assay [6], 370000 M⁻¹ s⁻¹ in assay [7] and 500000 M⁻¹ s⁻¹ in assay [8]. Also, in assay [9], the percent of immobilised protein active is less than 10%.
With NC10 scFv-0 trimer (VH-VL), the molecular mass of complex (measured, apparent average) in assay [10] was 212000 Da.
As to NC10 scFv-5 dimer, the molecular mass of complex (measured) in assay [11] amounted to 156000 Da.
For the substance NC10 scFv-15 monomer, the molecular mass of complex (measured) in assay [11] came out at 77900 Da. In addition, in [12], the Ka turned out to be 4.2e+08 M⁻¹, the koff amounted to 0.00174 s⁻¹ and the kon was found to be 740000 M⁻¹ s⁻¹.

The values above are taken from patent US20040071690A1.
